# Measurements reported in the supplement of paper PMC9732359.
# ± gives the uncertainty stated by the source.
# Experiment: protein stability index of a GFP-peptide fusion (yeast GPS) (PSI 1-4); higher = more stable; sorted into four equal gates, so the index is relative within each strain
# Method in brief: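 The protein stability index combines read frequencies across sorting gates, each weighted by its gate number and then summed. To obtain those frequencies, a pooled yeast library of GFP fusions to tiled 17-residue yeast protein peptides, on a plasmid also expressing Cherry, was grown to mid-log phase in leucine-free medium. The cells were sorted into four equal gates by GFP/Cherry ratio before plasmid amplification by PCR and Illumina sequencing.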
Sequence,protein stability index (doa10∆),protein stability index (pdr5∆),protein stability index (san1∆),protein stability index (ubr1∆)
DLETLTMHTKTYAAEIA [RPL32],2.99 ± 0.061,2.74 ± 0.054,2.42 ± 0.053,2.63 ± 0.059
DLGIKYDPSIGIFGMDF [RPL11A],2.85 ± 0.04,3.06 ± 0.041,2.96 ± 0.039,3 ± 0.037
DLIHKSEAFPSLQSCSV [SMC4],2.53 ± 0.085,2.32 ± 0.061,2.47 ± 0.067,2 ± 0.041
DLISEILKWVQWSRIVL [MED1],3.48 ± 0.12,3.33 ± 0.11,3.08 ± 0.064,3.54 ± 0.061
DLKASQRVCLRSDSYML [RPT6],2.92 ± 0.1,3.08 ± 0.077,2.92 ± 0.075,2.82 ± 0.051
DLKFEPQGRQSTTFADC [RPC40],3.37 ± 0.19,3.3 ± 0.29,,3.15 ± 0.075
DLKKFTSTITKYKQLLL [RPN3],2.92 ± 0.089,3 ± 0.055,2.91 ± 0.066,3.07 ± 0.045
DLKKKLNSLKDERSQGE [SMC4],3.43 ± 0.14,3.16 ± 0.25,3.06 ± 0.16,3.71 ± 0.25
DLKLLFNTEAEQTVSAV [RGR1],2.84 ± 0.088,2.93 ± 0.085,3.33 ± 0.11,3.19 ± 0.066
DLLKFENISLAEFILKN [BRR2],2.94 ± 0.082,3.3 ± 0.09,2.82 ± 0.062,2.83 ± 0.074
DLLVIDSHKRIPDMSKN [SNU114],2.99 ± 0.073,3.09 ± 0.073,2.93 ± 0.053,3.24 ± 0.056
DLNNAVQKRDEVKEQLG [SMC4],2.95 ± 0.055,2.99 ± 0.056,3.15 ± 0.046,2.83 ± 0.042
DLNTRISVIETIRVVTE [RPN5],1.64 ± 0.15,2.04 ± 0.12,,2.97 ± 0.15
DLPDTEGLELLGWIHTQ [PRP8],2.75 ± 0.093,2.79 ± 0.085,3.22 ± 0.051,3.27 ± 0.045
DLPISSTDNEAITISNS [SMC1],2.8 ± 0.079,2.89 ± 0.093,2.7 ± 0.054,2.91 ± 0.059
DLQYLGEFSGKNFSPTK [RRP6],3.46 ± 0.063,3.25 ± 0.083,3.19 ± 0.04,3.24 ± 0.038
DLRLIKVPQQAAGKRIS [SMC1],1.36 ± 0.099,1.31 ± 0.2,1.1 ± 0.13,1.15 ± 0.07
DLSADKPTSPFIDSICK [SRB8],2.12 ± 0.034,1.88 ± 0.039,1.76 ± 0.048,1.93 ± 0.032
DLSLNIHPIPSVTVSQG [YMR129W/POM152],1.98 ± 0.055,2.43 ± 0.057,1.98 ± 0.074,2.17 ± 0.039
DLSYNFNVHEVPRAALE [YMR129W/POM152],2.91 ± 0.057,3.04 ± 0.069,2.85 ± 0.054,2.92 ± 0.049
DLTFKLADILKANISLE [RPO21],2.49 ± 0.068,2.68 ± 0.087,2.46 ± 0.067,2.32 ± 0.047
DLTQLLEKERSILDDIK [SMC4],3.22 ± 0.14,2.98 ± 0.08,2.66 ± 0.13,3.16 ± 0.043
DMAILERYYELAFDKLN [ARP7],1.3 ± 0.09,1.6 ± 0.1,1.31 ± 0.16,1.54 ± 0.18
DMAKLKKMMNTSDSEST [SWI3],1.81 ± 0.059,2.27 ± 0.05,1.94 ± 0.073,1.91 ± 0.036
DMDAESNESQNGKDSEI [SMC3],3.42 ± 0.12,3.22 ± 0.096,2.89 ± 0.1,3.31 ± 0.038
DMKEYDSDKGSKLNELK [SMC2],3.25 ± 0.14,3.28 ± 0.1,3.27 ± 0.072,3.29 ± 0.14
DMLEHINLAMNESSLAL [SRB4],1.49 ± 0.094,1.28 ± 0.11,1.25 ± 0.15,1.52 ± 0.092

Sequence,protein stability index (doa10∆),protein stability index (pdr5∆),protein stability index (san1∆),protein stability index (ubr1∆)
DMPSLRLIDLSGCENIT [GRR1],2.33 ± 0.083,2.7 ± 0.097,2.45 ± 0.094,2.65 ± 0.09
DNATLTELVDKANIFQV [SSN2],3.09 ± 0.15,3.56 ± 0.12,3.21 ± 0.085,3.11 ± 0.11
DNDGFSFLMRQFTRFFL [ECM29],1.63 ± 0.047,2.19 ± 0.059,1.87 ± 0.075,2.43 ± 0.047
DNDIMNLGSRTKNNTQA [SSN3],2.91 ± 0.038,2.92 ± 0.038,2.76 ± 0.028,2.977 ± 0.029
DNIGEIDESLFNLLILS [YCG1],2.96 ± 0.13,3.02 ± 0.11,2.31 ± 0.16,3.1 ± 0.14
DNVIVINHKINNKITQL [SIR3],2.08 ± 0.057,2.13 ± 0.05,2.08 ± 0.053,2.2 ± 0.04
DNVSKNALDKLRNNLNS [YCG1],3.23 ± 0.12,3.19 ± 0.13,2.24 ± 0.29,3.01 ± 0.17
DPALLRPGRIDRKIEFP [RPT6],3.18 ± 0.075,3.32 ± 0.077,3.05 ± 0.057,3.26 ± 0.048
DPETTATQKESLEMVPK [RGR1],3.12 ± 0.063,3.07 ± 0.054,2.94 ± 0.048,3.11 ± 0.046
DPGRYNKVCRIEAASTT [RPB8],2.41 ± 0.093,2.53 ± 0.099,2.48 ± 0.1,2.73 ± 0.082
DPKFRRNHKHALHGTAK [RPL29],2.34 ± 0.025,2.602 ± 0.022,2.478 ± 0.024,2.636 ± 0.019
DPKFVNSLLAKLKDSKK [YML103C/NUP188],2.54 ± 0.2,2.86 ± 0.1,1.99 ± 0.15,2.54 ± 0.082
DPKTSLRIVKPTVSLTI [RPC82],2.3 ± 0.095,2.3 ± 0.084,2.56 ± 0.14,3.34 ± 0.079
DPPIIIFINYKQTADWL [PRP28],1.43 ± 0.031,1.61 ± 0.048,1.9 ± 0.072,1.95 ± 0.042
DPPKGILLYGPPGTGKT [RPT1],2.94 ± 0.28,2.71 ± 0.28,,3.23 ± 0.17
DPSLNLKLLAKSHVLLA [BRR2],2.02 ± 0.085,2.44 ± 0.1,1.79 ± 0.21,2.06 ± 0.15
DPSMDPELAMALRLSME [RPN10],2.98 ± 0.062,3.18 ± 0.05,3.28 ± 0.068,2.96 ± 0.054
DQCKKQRRCLHCGALNG [RPO31],2.6 ± 0.14,2.71 ± 0.18,2.4 ± 0.11,2.57 ± 0.11
DQEIVIQQLHSVLNPFL [ISW2],2.3 ± 0.042,2.09 ± 0.042,1.98 ± 0.056,2.26 ± 0.032
DQITKMKDRLVEWNDQV [RPN9],3.35 ± 0.12,3.05 ± 0.099,3.43 ± 0.079,3.29 ± 0.079
DQLDSEAASITRKSLNN [ECM29],2.89 ± 0.1,2.91 ± 0.1,3.04 ± 0.064,2.95 ± 0.049
DQPQSSEAKRTKFSNPA [BRR2],3.1 ± 0.093,2.65 ± 0.068,3.24 ± 0.086,3.13 ± 0.084
DQTNHIESDSILNLLNI [ECM29],3.02 ± 0.064,3.04 ± 0.072,2.99 ± 0.077,3.03 ± 0.059
DRAQNSYQPMYQRPMQV [SSN3],1.55 ± 0.047,1.73 ± 0.057,1.55 ± 0.16,2.64 ± 0.041
DRGLSIKLNGSTLLCTD [SNU114],3.17 ± 0.14,2.76 ± 0.08,2.34 ± 0.092,3 ± 0.2
DRIIHTWRTQLAASEIG [ECM29],1.65 ± 0.056,1.84 ± 0.06,1.65 ± 0.062,1.83 ± 0.035
